Experiments:
FcγRIIb [1] = molecular target: FcγRIIb (UniProt P31994); assay: SPR (Protocol 2); ratio of the fold for FcγRIIb to the fold for FcγRIIaR
FcγRIIaR = FcγRIIaR (UniProt P12318); assay: SPR (Protocol 2), antibody captured on immobilised HER2, receptor as analyte
FcγRIIb [2] = molecular target: FcγRIIb (UniProt P31994); assay: as above
C1q (human) = C1q (human) (UniProt P02745); assay: ELISA; antibody coated, human C1q added, signal as % of WT
C1q (human), sequence (P02745 23-245 limits assumed, chain 1 of 3): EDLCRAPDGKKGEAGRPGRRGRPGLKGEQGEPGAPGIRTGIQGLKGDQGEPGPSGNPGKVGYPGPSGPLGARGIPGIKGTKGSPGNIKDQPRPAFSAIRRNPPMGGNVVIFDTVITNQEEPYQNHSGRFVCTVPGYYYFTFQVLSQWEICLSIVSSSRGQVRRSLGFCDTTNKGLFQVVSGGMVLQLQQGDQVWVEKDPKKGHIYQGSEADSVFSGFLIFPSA
C1q (human), sequence (P02746 28-253 limits assumed, chain 2 of 3, further chain): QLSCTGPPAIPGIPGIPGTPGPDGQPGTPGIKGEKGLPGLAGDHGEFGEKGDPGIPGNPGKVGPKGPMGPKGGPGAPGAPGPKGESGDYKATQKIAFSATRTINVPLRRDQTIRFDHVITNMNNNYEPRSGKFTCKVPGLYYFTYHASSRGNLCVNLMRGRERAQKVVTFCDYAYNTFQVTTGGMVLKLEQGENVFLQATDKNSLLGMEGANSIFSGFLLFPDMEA
C1q (human), sequence (P02747 29-245 limits assumed, chain 3 of 3, further chain): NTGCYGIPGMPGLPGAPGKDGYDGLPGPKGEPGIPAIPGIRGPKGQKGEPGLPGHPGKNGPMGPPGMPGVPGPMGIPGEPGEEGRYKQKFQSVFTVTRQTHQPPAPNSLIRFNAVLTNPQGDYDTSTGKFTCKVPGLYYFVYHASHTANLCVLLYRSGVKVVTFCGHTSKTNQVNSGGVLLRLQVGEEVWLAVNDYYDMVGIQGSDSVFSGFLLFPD

FcγRIIaR, sequence (P12318 34-217): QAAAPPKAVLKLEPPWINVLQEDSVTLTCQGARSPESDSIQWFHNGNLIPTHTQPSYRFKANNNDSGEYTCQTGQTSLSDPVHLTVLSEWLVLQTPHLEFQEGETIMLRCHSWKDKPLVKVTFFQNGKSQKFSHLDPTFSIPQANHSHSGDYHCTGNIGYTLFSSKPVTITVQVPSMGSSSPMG
FcγRIIb, sequence (P31994 43-217): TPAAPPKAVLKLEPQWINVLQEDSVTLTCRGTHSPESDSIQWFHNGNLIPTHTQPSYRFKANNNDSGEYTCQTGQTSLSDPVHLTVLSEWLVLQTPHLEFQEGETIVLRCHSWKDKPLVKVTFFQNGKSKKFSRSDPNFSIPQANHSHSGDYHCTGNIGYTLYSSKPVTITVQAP

IIb/IIaR Selectivity (IIb-Fold/IIaR-Fold) (FcγRIIb [1])	IIaR-Fold (fold change in affinity over wild-type) (fold over wild-type) (FcγRIIaR)	IIb-Fold (fold change in affinity over wild-type) (fold over wild-type) (FcγRIIb [2])	C1q Binding (% WT) (C1q (human))	Substance
1.2	25.6	31.1	–	Variant 19508 (chain A: none / chain B: S239D_H268D), one-armed trastuzumab antibody, Scaffold 2
3.3	9.7	31.8	–	Variant 19509 (chain A: G236N / chain B: S239D_H268D), one-armed trastuzumab antibody, Scaffold 2
3.1	1.8	5.5	–	Variant 19510 (chain A: G236N_G237A / chain B: S239D_H268D), one-armed trastuzumab antibody, Scaffold 2
1.2	5.7	7.1	–	Variant 19511 (chain A: G236N_G237F / chain B: S239D_H268D), one-armed trastuzumab antibody, Scaffold 2
2.5	3.2	7.9	–	Variant 19512 (chain A: none / chain B: G236N_S239D_H268D), one-armed trastuzumab antibody, Scaffold 2
0.6	13.4	8.2	–	Variant 19513 (chain A: G236H / chain B: S239D_H268D), one-armed trastuzumab antibody, Scaffold 2
1.7	2.5	4.2	–	Variant 19514 (chain A: none / chain B: G236H_S239D_H268D), one-armed trastuzumab antibody, Scaffold 2
0.7	14.2	9.6	–	Variant 19515 (chain A: G236Q / chain B: S239D_H268D), one-armed trastuzumab antibody, Scaffold 2
2.6	11.6	30.5	–	Variant 19517 (chain A: G236D / chain B: S239D_H268D), one-armed trastuzumab antibody, Scaffold 2
2.2	14.7	32.9	–	Variant 19518 (chain A: none / chain B: G236D_S239D_H268D), one-armed trastuzumab antibody, Scaffold 2
0.3	30.9	10.3	–	Variant 19519 (chain A: G236E / chain B: S239D_H268D), one-armed trastuzumab antibody, Scaffold 2
1.5	17.5	26.5	–	Variant 19520 (chain A: none / chain B: G236E_S239D_H268D), one-armed trastuzumab antibody, Scaffold 2
6.8	5.5	37.6	–	Variant 19521 (chain A: G236N / chain B: G236D_S239D_H268D), one-armed trastuzumab antibody, Scaffold 2
3.6	1.9	6.9	–	Variant 19523 (chain A: G236D / chain B: G236N_S239D_H268D), one-armed trastuzumab antibody, Scaffold 2
1.2	8.9	10.3	–	Variant 19524 (chain A: G236Q / chain B: G236D_S239D_H268D), one-armed trastuzumab antibody, Scaffold 2
3.7	2.1	7.7	–	Variant 19525 (chain A: G236D / chain B: G236Q_S239D_H268D), one-armed trastuzumab antibody, Scaffold 2
3.5	0.4	1.4	–	Variant 19526 (chain A: G236D / chain B: G236K_S239D_H268D), one-armed trastuzumab antibody, Scaffold 2
6	0.2	1.2	–	Variant 19527 (chain A: G236N / chain B: G236K_S239D_H268D), one-armed trastuzumab antibody, Scaffold 2
2.8	6.7	18.6	–	Variant 19528 (chain A: G236N / chain B: G236S_S239D_H268D), one-armed trastuzumab antibody, Scaffold 2
2.3	1.6	3.7	–	Variant 19531 (chain A: G236D / chain B: G236H_S239D_H268D), one-armed trastuzumab antibody, Scaffold 2
2.9	18.2	53.5	–	Variant 19694 (chain A: none / chain B: G236D_G237F_S239D_H268D), one-armed trastuzumab antibody, Scaffold 2
7	0.3	2.1	–	Variant 19699 (chain A: G236D_G237F / chain B: G236D_G237F), one-armed trastuzumab antibody, Scaffold 2
–	–	–	194 % WT	Variant 32255 (trastuzumab FSA; chain A S239T_strat1, chain B D329*I_F328*Y_strat1) (antibody)
–	–	–	124 % WT	Variant 32256 (trastuzumab FSA; chain A A237D_strat1, chain B G330*K_strat1) (antibody)
–	–	–	145 % WT	Variant 32257 (trastuzumab FSA; chain A A237E_strat1, chain B G330*K_strat1) (antibody)
–	–	–	189 % WT	Variant 32260 (trastuzumab FSA; chain A L234D_strat1, chain B G330*K_strat1) (antibody)
–	–	–	209 % WT	Variant 32261 (trastuzumab FSA; chain A L234Q_strat1, chain B G330*K_strat1) (antibody)

From patent US20240294646A1
